From US20170037089A1 (IMMATICS BIOTECHNOLOGIES, published 2017)

target: T1, HLA-A*02 (peptide-receptive MHC class I monomer after UV-ligand exchange) (human); assay: UV-ligand exchange, b2m ELISA; peptide exchange yield grade (>=10% +; >=20% ++; >=50 +++; >=75% ++++)
T1 construct: also called HLA-A*02:01; HLA-A*0201
Description: Candidate peptides for T cell based therapies according to the present invention were further tested for their MHC binding capacity (affinity). The individual peptide-MHC complexes were produced by UV-ligand exchange, where a UV-sensitive peptide is cleaved upon UV-irradiation, and exchanged with the peptide of interest as analyzed. Only peptide candidates that can effectively bind and stabilize the peptide-receptive MHC molecules prevent dissociation of the MHC complexes. To determine the yield of the exchange reaction, an ELISA was performed based on the detection of the light chain (β2m) of stabilized MHC complexes. The assay was performed as generally described in Rodenko et al. (Rodenko et al., 2006).
96 well MAXISorp plates (NUNC) were coated over night with 2 ug/ml streptavidin in PBS at room temperature, washed 4× and blocked for 1 h at 37° C. in 2% BSA containing blocking buffer. Refolded HLA-A*02:01/MLA-001 monomers served as standards, covering the range of 15-500 ng/ml. Peptide-MHC monomers of the UV-exchange reaction were diluted 100 fold in blocking buffer. Samples were incubated for 1 h at 37° C., washed four times, incubated with 2 ug/ml HRP conjugated anti-32m for 1 h at 37° C., washed again and detected with TMB solution that is stopped with […]. Absorption was measured at 450 nm. Candidate peptides that show a high exchange yield (preferably higher than 50%, most preferred higher than 75%) are generally preferred for a generation and production of antibodies or fragments thereof, and/or T cell receptors or fragments thereof, as they show sufficient avidity to the MHC molecules and prevent dissociation of the MHC complexes.

For KMDEASAQL [KMDEASAQL (SEQ ID No. 16)], which peptide exchange yield is on record?
The peptide exchange yield was 50 to 75%.

How did the peptide exchange yield turn out when TLLQVVGVVSV [TLLQVVGVVSV (SEQ ID No. 7)] was run?
Its peptide exchange yield is 20 to 50%.

How did the peptide exchange yield turn out when ALLESRVNL (also called PDE11-001) [ALLESRVNL (SEQ ID No. 6)] was run?
The peptide exchange yield was no less than 75%.

Which peptide exchange yield does the source give for SLYDSIAFI [SLYDSIAFI (SEQ ID No. 22)] here?
The peptide exchange yield was no less than 75%.

Which peptide exchange yield does the source give for GMLNEAEGKAIKL [GMLNEAEGKAIKL (SEQ ID No. 9)] here?
Its peptide exchange yield is 50 to 75%.

With KMDEASAQLLA [KMDEASAQLLA (SEQ ID No. 15)] as the binder, how does the peptide exchange yield read?
The peptide exchange yield was 50 to 75%.

How did the peptide exchange yield turn out when KMDEASAQLL [KMDEASAQLL (SEQ ID No. 14)] was run?
The peptide exchange yield was 20 to 50%.

For ALLTFVWKL (also called TRPM8-002) [ALLTFVWKL (SEQ ID No. 4)], which peptide exchange yield is on record?
Its peptide exchange yield is no less than 75%.

How did the peptide exchange yield turn out when SLLSHQVLL [SLLSHQVLL (SEQ ID No. 20)] was run?
Its peptide exchange yield is 50 to 75%.

How did the peptide exchange yield turn out when HLLEDIAHV (also called NEFH-001) [HLLEDIAHV (SEQ ID No. 3)] was run?
Its peptide exchange yield is no less than 75%.

With ALGDLVQSV [ALGDLVQSV (SEQ ID No. 52)] as the binder, how does the peptide exchange yield read?
Its peptide exchange yield is 50 to 75%.

VTAQIGIVAV (also called OR51E2-001) [VTAQIGIVAV (SEQ ID No. 1)] was tested. Which peptide exchange yield did it give?
The peptide exchange yield was no less than 75%.

For SLFHPEDTGQV (also called KLK3-004) [SLFHPEDTGQV (SEQ ID No. 49)], which peptide exchange yield is on record?
Its peptide exchange yield is 50 to 75%.

With TLWRGPVVV [TLWRGPVVV (SEQ ID No. 10)] as the binder, how does the peptide exchange yield read?
Its peptide exchange yield is 50 to 75%.

With YLLKDKGEYTL [YLLKDKGEYTL (SEQ ID No. 53)] as the binder, how does the peptide exchange yield read?
Its peptide exchange yield is 50 to 75%.

With AMAPNHAVV [AMAPNHAVV (SEQ ID No. 13)] as the binder, how does the peptide exchange yield read?
Its peptide exchange yield is 50 to 75%.

With YLEEECPAT [YLEEECPAT (SEQ ID No. 11)] as the binder, how does the peptide exchange yield read?
The peptide exchange yield was 20 to 50%.

For KIFSRLIYI (also called TRPM8-003) [KIFSRLIYI (SEQ ID No. 5)], which peptide exchange yield is on record?
The peptide exchange yield was 50 to 75%.

Which peptide exchange yield does the source give for SMLGEEIQL (also called GREB-001) [SMLGEEIQL (SEQ ID No. 2)] here?
Its peptide exchange yield is no less than 75%.

Which peptide exchange yield does the source give for YLNDSLRHV [YLNDSLRHV (SEQ ID No. 21)] here?
The peptide exchange yield was 20 to 50%.
